We go through six molecules from patent US9958461B2, “Detection of protein to protein interactions” (THE GOVERNING COUNCIL OF THE UNIVERSITY OF TORONTO, priority 2013, dated 2018).

One test deals with T1, EGFR-L858R (Homo sapiens, UniProt P00533, L858R).
T1 construct: with the advantage of testing full-length integral membrane proteins; (GGGGS)2 linker-Cub (human ubiquitin aa 35-76)-GAL4(1-147)-mNFkB(364-550) (C); expressed in transfected cells
The experiment in a line: MaMTH EGFR-interactor screen, lentiviral preys against EGFR-L858R bait (interaction score). The format is cell-based. To be noted: MaMTH interaction score of prey with EGFR-L858R bait. The essentials:
(§1)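 Interaction score is the luciferase fold-change versus averaged negative controls (Fabp5, Pex19, Pex7, GABBR2), with >1 called interacting. Luciferase was measured 24 h after triplicate bait transfection. This followed single-copy prey transduction (MOI ~0.3-0.4) of GAL4UAS-luciferase HEK293T cells and ≥48 h puromycin selection.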

The test system of test [1] is EGFR-Wt. The experiment in a line: MaMTH EGFR-interactor screen, lentiviral preys against EGFR-wildtype bait (interaction score). In kind it is cell-based, human. To be noted: ratio of EGFR-Wt mean to EGFR-L858R mean interaction score. The method in brief:
as §1

Test [2] addresses T2, EGFR-Wt (Homo sapiens, UniProt P00533).
T2 construct: with the advantage of testing full-length integral membrane proteins; (GGGGS)2 linker-Cub (human ubiquitin aa 35-76)-GAL4(1-147)-mNFkB(364-550) (C); expressed in transfected cells
Described as above. The format is cell-based. To be noted: MaMTH interaction score of prey with EGFR-Wt bait, mean. The method in brief:
as §1

B1: Pdgfra (protein, UniProt P26618 25-1089, looked up)
Platelet-derived growth …: LLLPSILPNENEKIVQLNSSFSLRCVGESEVSWQHPMSEEDDPNVEIRSEENNSGLFVTVLEVVNASAAHTGWYTCYYNHTQTDESEIEGRHIYIYVPDPDMAFVPLGMTDSLVIVEEDDSAIIPCRTTDPETQVTLHNNGRLVPASYDSRQGFNGTFSVGPYICEATVKGRTFKTSEFNVYALKATSELNLEMDARQTVYKAGETIVVTCAVFNNEVVDLQWTYPGEVRNKGITMLEEIKLPSIKLVYTLTVPKATVKDSGEYECAARQATKEVKEMKRVTISVHEKGFVEIEPTFGQLEAVNLHEVREFVVEVQAYPTPRISWLKDNLTLIENLTEITTDVQKSQETRYQSKLKLIRAKEEDSGHYTIIVQNEDDVKSYTFELSTLVPASILDLVDDHHGSGGGQTVRCTAEGTPLPEIDWMICKHIKKCNNDTSWTVLASNVSNIITELPRRGRSTVEGRVSFAKVEETIAVRCLAKNNLSVVARELKLVAPTLRSELTVAAAVLVLLVIVIVSLIVLVVIWKQKPRYEIRWRVIESISPDGHEYIYVDPMQLPYDSRWEFPRDGLVLGRILGSGAFGKVVEGTAYGLSRSQPVMKVAVKMLKPTARSSEKQALMSELKIMTHLGPHLNIVNLLGACTKSGPIYIITEYCFYGDLVNYLHKNRDSFMSQHPEKPKKDLDIFGLNPADESTRSYVILSFENNGDYMDMKQADTTQYVPMLERKEVSKYSDIQRSLYDRPASYKKKSMLDSEVKNLLSDDDSEGLTLLDLLSFTYQVARGMEFLASKNCVHRDLAARNVLLAQGKIVKICDFGLARDIMHDSNYVSKGSTFLPVKWMAPESIFDNLYTTLSDVWSYGILLWEIFSLGGTPYPGMMVDSTFYNKIKSGYRMAKPDHATSEVYEIMVQCWNSEPEKRPSFYHLSEIVENLLPGQYKKSYEKIHLDFLKSDHPAVARMRVDSDNAYIGVTYKNEEDKLKDWEGGLDEQRLSADSGYIIPLPDIDPVPEEEDLGKRNRHSSQTSEESAIETGSSSSTFIKREDETIEDIDMMDDIGIDSSDLVEDSFL
As to B1, the EGFR-L858R mean with EGFR-L858R amounted to 13.73. Also, the Wt/L858R in the test on EGFR-Wt [1] is given as 0.67. Moreover, the EGFR-Wt mean with EGFR-Wt [2] was 9.18.

B2: MAPK8 (protein, UniProt P45983 1-427, looked up)
Mitogen-activated protein …: MSRSKRDNNFYSVEIGDSTFTVLKRYQNLKPIGSGAQGIVCAAYDAILERNVAIKKLSRPFQNQTHAKRAYRELVLMKCVNHKNIIGLLNVFTPQKSLEEFQDVYIVMELMDANLCQVIQMELDHERMSYLLYQMLCGIKHLHSAGIIHRDLKPSNIVVKSDCTLKILDFGLARTAGTSFMMTPYVVTRYYRAPEVILGMGYKENVDLWSVGCIMGEMVCHKILFPGRDYIDQWNKVIEQLGTPCPEFMKKLQPTVRTYVENRPKYAGYSFEKLFPDVLFPADSEHNKLKASQARDLLSKMLVIDASKRISVDEALQHPYINVWYDPSEAEAPPPKIPDKQLDEREHTIEEWKELIYKEVMDLEERTKNGVIRGQPSPLGAAVINGSQHPSSSSSVNDVSSMSTDPTLASDTDSSLEAAAGPLGCCR
B2 displayed an EGFR-L858R mean in the test with EGFR-L858R of 5.13. The Wt/L858R in the test on EGFR-Wt [1] is given as 0.64. Moreover, the EGFR-Wt mean in the test with EGFR-Wt [2] turned out to be 3.30.

B3: STAT1 (protein, UniProt P42224 2-750, looked up)
Signal transducer and …: SQWYELQQLDSKFLEQVHQLYDDSFPMEIRQYLAQWLEKQDWEHAANDVSFATIRFHDLLSQLDDQYSRFSLENNFLLQHNIRKSKRNLQDNFQEDPIQMSMIIYSCLKEERKILENAQRFNQAQSGNIQSTVMLDKQKELDSKVRNVKDKVMCIEHEIKSLEDLQDEYDFKCKTLQNREHETNGVAKSDQKQEQLLLKKMYLMLDNKRKEVVHKIIELLNVTELTQNALINDELVEWKRRQQSACIGGPPNACLDQLQNWFTIVAESLQQVRQQLKKLEELEQKYTYEHDPITKNKQVLWDRTFSLFQQLIQSSFVVERQPCMPTHPQRPLVLKTGVQFTVKLRLLVKLQELNYNLKVKVLFDKDVNERNTVKGFRKFNILGTHTKVMNMEESTNGSLAAEFRHLQLKEQKNAGTRTNEGPLIVTEELHSLSFETQLCQPGLVIDLETTSLPVVVISNVSQLPSGWASILWYNMLVAEPRNLSFFLTPPCARWAQLSEVLSWQFSSVTKRGLNVDQLNMLGEKLLGPNASPDGLIPWTRFCKENINDKNFPFWLWIESILELIKKHLLPLWNDGCIMGFISKERERALLKDQQPGTFLLRFSESSREGAITFTWVERSQNGGEPDFHAVEPYTKKELSAVTFPDIIRNYKVMAAENIPENPLKYLYPNIDKDHAFGKYYSRPKEAPEPMELDGPKGTGYIKTELISVSEVHPSRLQTTDNLLPMSPEEFDEVSRIVGSVEFDSMMNTV
In turn, B3 displayed an EGFR-L858R mean in the test with EGFR-L858R of 6.80. Moreover, the Wt/L858R in the test on EGFR-Wt [1] came to 0.69. The molecule further had an EGFR-Wt mean with EGFR-Wt [2] of 4.70.

B4: BAIAP2 (protein, UniProt Q9UQB8 1-552, looked up)
BAR/IMD domain-containing …: MSLSRSEEMHRLTENVYKTIMEQFNPSLRNFIAMGKNYEKALAGVTYAAKGYFDALVKMGELASESQGSKELGDVLFQMAEVHRQIQNQLEEMLKSFHNELLTQLEQKVELDSRYLSAALKKYQTEQRSKGDALDKCQAELKKLRKKSQGSKNPQKYSDKELQYIDAISNKQGELENYVSDGYKTALTEERRRFCFLVEKQCAVAKNSAAYHSKGKELLAQKLPLWQQACADPSKIPERAVQLMQQVASNGATLPSALSASKSNLVISDPIPGAKPLPVPPELAPFVGRMSAQESTPIMNGVTGPDGEDYSPWADRKAAQPKSLSPPQSQSKLSDSYSNTLPVRKSVTPKNSYATTENKTLPRSSSMAAGLERNGRMRVKAIFSHAAGDNSTLLSFKEGDLITLLVPEARDGWHYGESEKTKMRGWFPFSYTRVLDSDGSDRLHMSLQQGKSSSTGNLLDKDDLAIPPPDYGAASRAFPAQTASGFKQRPYSVAVPAFSQGLDDYGARSMSRNPFAHVQLKPTVTNDRCDLSAQGPEGREHGDGSARTLAGR
In turn, B4 came in with an EGFR-L858R mean with EGFR-L858R of 7.37. Also, the Wt/L858R in the test with EGFR-Wt [1] is on record as 0.66. In the test with EGFR-Wt [2], the EGFR-Wt mean is reported as 4.83.

B5: Shc1 (protein, UniProt P98083 1-579, looked up)
SHC-transforming protein 1: MDLLPPKPKYNPLRNESLSSLEEGASGSTPPEELPSPSASSLGPILPPLPGDDSPTTLCSFFPRMSNLKLANPAGGRLGPKGEPGKAAEDGEGSAGAALRDSGLLPLLQDMNKLSGGGGRRTRVEGGQLGGEEWTRHGSFVNKPTRGWLHPNDKVMGPGVSYLVRYMGCVEVLQSMRALDFNTRTQVTREAISLVCEAVPGAKGATRRRKPCSRPLSSILGRSNLKFAGMPITLTVSTSSLNLMAADCKQIIANHHMQSISFASGGDPDTAEYVAYVAKDPVNQRACHILECPEGLAQDVISTIGQAFELRFKQYLRNPPKLVTPHDRMAGFDGSAWDEEEEEPPDHQYYNDFPGKEPPLGGVVDMRLREGAARPTLPSAQMSSHLGATLPIGQHAAGDHEVRKQMLPPPPCPGRELFDDPSYVNIQNLDKARQAGGGAGPPNPSLNGSAPRDLFDMKPFEDALRVPPPPQSMSMAEQLQGEPWFHGKLSRREAEALLQLNGDFLVRESTTTPGQYVLTGLQSGQPKHLLLVDPEGVVRTKDHRFESVSHLISYHMDNHLPIISAGSELCLQQPVDRKV
In the test with EGFR-L858R, B5 gave an EGFR-L858R mean of 21.65. Moreover, the Wt/L858R in the test on EGFR-Wt [1] was 0.64. The same molecule came in with an EGFR-Wt mean with EGFR-Wt [2] of 13.89.

B6: SH2D3A (protein, UniProt Q9BRG2 1-576, looked up)
SH2 domain-containing protein …: MQVPQDGEDLAGQPWYHGLLSRQKAEALLQQNGDFLVRASGSRGGNPVISCRWRGSALHFEVFRVALRPRPGRPTALFQLEDEQFPSIPALVHSYMTGRRPLSQATGAVVSRPVTWQGPLRRSFSEDTLMDGPARIEPLRARKWSNSQPADLAHMGRSREDPAGMEASTMPISALPRTSSDPVLLKAPAPLGTVADSLRASDGQLQAKAPTKPPRTPSFELPDASERPPTYCELVPRVPSVQGTSPSQSCPEPEAPWWEAEEDEEEENRCFTRPQAEISFCPHDAPSCLLGPQNRPLEPQVLHTLRGLFLEHHPGSTALHLLLVDCQATGLLGVTRDQRGNMGVSSGLELLTLPHGHHLRLELLERHQTLALAGALAVLGCSGPLEERAAALRGLVELALALRPGAAGDLPGLAAVMGALLMPQVSRLEHTWRQLRRSHTEAALAFEQELKPLMRALDEGAGPCDPGEVALPHVAPMVRLLEGEEVAGPLDESCERLLRTLHGARHMVRDAPKFRKVAAQRLRGFRPNPELREALTTGFVRRLLWGSRGAGAPRAERFEKFQRVLGVLSQRLEPDR
B6 had an EGFR-L858R mean in the test with EGFR-L858R of 7.23. The Wt/L858R in the test with EGFR-Wt [1] was found to be 0.66. Besides, in the test with EGFR-Wt [2], the EGFR-Wt mean is 4.75.
